This note sets out measurements from patent publication US20240409635A1 (VIBRANT PHARMA, published 2024).

The target in test [1] is epidermal growth factor receptor (EGFR) on human tumor cells (human, UniProt P00533 25-1210). Kind of test: cell-based or functional assay.
For test [2], the target named is T1, recombinant human CD3ε/δ protein (ACRO systems, CDD-H52W1) (human, UniProt P07766 23-126; P04234 22-105).
T1 construct: Bought reagent
Kind of test: BLI, antibody captured on AHC sensor. Here is the method: (§1) Antibodies were first captured onto an anti-human IgG Fc coated AHC biosensor (Anti-hIgG Fc, Sartorius, 18-5060). Antibodies were diluted to 5 μg/mL and 1.5 nm protein was coupled to the AHC sensor surface in 0.02% PBST.
(§2) After the sensor captures the antibodies, it is used to bind and dissociate with different concentrations of analytes to obtain the KD value of the interaction. The experimental parameters are as follows: Baseline1: 60 s, Loading: 240 s, Baseline2: 180 s, Association: 240 s, Dissociation: 600 s, High sensitivity kinetics: 2 Hz. Kinetic constants were derived based on the rate equation for 1:1 Langmuir binding to obtain equilibrium dissociation constants (KD). The Data Analysis HT 12 software (Sartorius, 50-5029) was used to simultaneously fit binding and dissociation curves to calculate Kₒₙ, and Koff. The affinity KD was calculated based on the below formula: KD=Koff/Kₒₙ.
Background: BLI is a label-free optical method that tracks binding on a fibre tip over time.

Test [3] has as its target T2, recombinant human protein CD3ε/δ (ACRO systems, CDD-H52W1) (human, UniProt P07766 23-126; P04234 22-105).
T2 construct: Bought heterodimer
The test can be described thus: BLI, antibody on AHC sensor, antigen as analyte. Here is the method:
as §1
as §2, with “binds” for “is used to bind”, “dissociates” for “dissociate”, “Kₒₙ” for “Kₒₙ,”

The target of test [4] is T3, recombinant human EGFR protein (ACRO systems, EGR-H5222) (human, UniProt P00533 25-645).
T3 construct: Bought
The test can be described thus: BLI, antibody on AHC sensor, antigen as analyte. Here is the method:
as §1
as §2, with “binds” for “is used to bind”, “dissociates” for “dissociate”, “Kₒₙ” for “Kₒₙ,”

The target of test [5] is T4, recombinant human tumor antigen CEACAM-6 (ACRO systems, CE6-H5223) (human, UniProt P40199 35-320).
T4 construct: Bought
T4 sequence (looked up): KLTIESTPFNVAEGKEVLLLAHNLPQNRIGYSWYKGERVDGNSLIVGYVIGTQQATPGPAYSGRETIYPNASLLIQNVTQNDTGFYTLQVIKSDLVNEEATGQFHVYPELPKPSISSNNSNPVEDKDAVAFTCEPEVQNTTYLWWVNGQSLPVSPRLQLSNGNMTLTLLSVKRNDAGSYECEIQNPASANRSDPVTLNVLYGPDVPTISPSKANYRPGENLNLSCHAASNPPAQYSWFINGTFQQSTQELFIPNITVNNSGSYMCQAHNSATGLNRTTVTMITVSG
The test can be described thus: BLI, antibody on AHC sensor, antigen as analyte. The method, then:
as §1
as §2, with “binds” for “is used to bind”, “dissociates” for “dissociate”, “Kₒₙ” for “Kₒₙ,”

Test [6] addresses T5, recombinant human tumor antigen CEA (CEACAM-5/CD66e, ACRO systems, CE5-H5226) (human, UniProt P06731 35-685).
T5 construct: Bought
T5 sequence (looked up): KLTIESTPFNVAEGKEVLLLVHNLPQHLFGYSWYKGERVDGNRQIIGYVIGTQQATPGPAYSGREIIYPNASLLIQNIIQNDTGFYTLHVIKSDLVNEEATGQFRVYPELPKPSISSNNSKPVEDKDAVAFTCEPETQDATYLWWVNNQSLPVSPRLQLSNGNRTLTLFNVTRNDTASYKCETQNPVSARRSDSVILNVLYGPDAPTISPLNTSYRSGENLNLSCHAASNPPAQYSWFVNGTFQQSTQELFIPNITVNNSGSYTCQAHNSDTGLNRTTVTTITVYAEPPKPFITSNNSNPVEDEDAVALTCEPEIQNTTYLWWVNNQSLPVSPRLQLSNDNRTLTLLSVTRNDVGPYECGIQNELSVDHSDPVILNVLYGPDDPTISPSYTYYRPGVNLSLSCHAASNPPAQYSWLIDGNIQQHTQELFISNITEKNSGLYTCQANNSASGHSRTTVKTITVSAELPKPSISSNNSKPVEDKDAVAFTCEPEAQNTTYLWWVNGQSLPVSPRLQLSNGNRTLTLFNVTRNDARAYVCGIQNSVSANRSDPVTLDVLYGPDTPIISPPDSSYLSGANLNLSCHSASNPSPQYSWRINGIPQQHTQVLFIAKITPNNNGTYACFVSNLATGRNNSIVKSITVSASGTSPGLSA
Kind of test: BLI, antibody on AHC sensor, antigen as analyte. Here is the method:
as §1
as §2, with “binds” for “is used to bind”, “dissociates” for “dissociate”, “Kₒₙ” for “Kₒₙ,”

The target of test [7] is T6, recombinant human tumor antigen HER2 (ERBB2, ACRO systems, HE2-H5212) (human, UniProt P04626 23-652).
T6 construct: Bought
The test can be described thus: BLI, antibody on AHC sensor, antigen as analyte. Here is the method: as §1
as §2, with “binds” for “is used to bind”, “dissociates” for “dissociate”, “Kₒₙ” for “Kₒₙ,”

Numbering of substitutions follows the chain as printed.

T2 sequence (P07766 23-126, stated change not applied, chain 1 of 2): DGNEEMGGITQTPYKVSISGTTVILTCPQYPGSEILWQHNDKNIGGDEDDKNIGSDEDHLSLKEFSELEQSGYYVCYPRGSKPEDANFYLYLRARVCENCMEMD
T2 sequence (P04234 22-105, stated change not applied, chain 2 of 2): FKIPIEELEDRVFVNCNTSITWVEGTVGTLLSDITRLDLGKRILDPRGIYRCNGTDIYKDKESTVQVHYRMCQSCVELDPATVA
T1 sequence (P07766 23-126, stated change not applied, chain 1 of 2): as the sequence (P07766 23-126, stated change not applied, chain 1 of 2) above
T1 sequence (P04234 22-105, stated change not applied, chain 2 of 2): as the sequence (P04234 22-105, stated change not applied, chain 2 of 2) above

B1: EGFR-BsAb bispecific control antibody (anti-CD3 TA1 Fab and EGFR VHH) (bispecific antibody, human IgG4 S228P, kappa, F234A L235A)
heavy: EVKLLESGGGLVQPKGSLKLSCAASGFTFNTYAMNWVRQAPGKGLEWVARIRSKYNNYATYYADSVKDRFTISRDDSQSILYLQMNNLKTEDTAMYYCVRHGNFGNSYVSWFAYWGQGTLVTVSSASTKGPSVFPLAPCSRSTSESTAALGCLVKDYFPEPVTVSWNSGALTSGVHTFPAVLQSSGLYSLSSVVTVPSSSLGTKTYTCNVDHKPSNTKVDKRVESKYGPPCPPCPAPEAAGGPSVFLFPPKPKDTLMISRTPEVTCVVVDVSQEDPEVQFNWYVDGVEVHNAKTKPREEQFNSTYRVVSVLTVLHQDWLNGKEYKCKVSNKGLPSSIEKTISKAKGQPREPQVYTLPPCQEEMTKNQVSLWCLVKGFYPSDIAVEWESNGQPENNYKTTPPVLDSDGSFFLYSRLTVDKSRWQEGNVFSCSVMHEALHNHYTQKSLSLSL
chain: QVQLQESGGGSVQAGGSLKLSCAASGRGFSRYAMGWFRQAPGQDREFVATISWTNSTDYADSVKGRFAISRDNAKNTAYLQMNSLKPEDTAVYYCAADKWASSTRSIDYDYWGQGIQVTVSSESKYGPPCPPCPAPEAAGGPSVFLFPPKPKDTLMISRTPEVTCVVVDVSQEDPEVQFNWYVDGVEVHNAKTKPREEQFNSTYRVVSVLTVLHQDWLNGKEYKCKVSNKGLPSSIEKTISKAKGQPREPQVCTLPPSQEEMTKNQVSLSCAVKGFYPSDIAVEWESNGQPENNYKTTPPVLDSDGSFFLVSRLTVDKSRWQEGNVFSCSVMHEALHNRFTQKSLSLSL
light: QAVVTQESALTTSPGETVTLTCRSSTGAVTTSNYANWVQEKPDHLFTGLIGGTNKRAPGVPARFSGSLIGDKAALTITGAQTEDEAIYFCALWYSNLWVFGGGTKVEIKRTVAAPSVFIFPPSDEQLKSGTASVVCLLNNFYPREAKVQWKVDNALQSGNSQESVTEQDSKDSTYSLSSTLTLSKADYEKHKVYACEVTHQGLSSPVTKSFNRGEC
For the molecule B1, in test [1], the “T cell mediated killing EC50, H-1975 (EGFR+c-Met+)” value turned out to be 0.00032 nM; the “T cell mediated killing EC50, HT-29 (EGFR+c-Met+)” value was 0.000387 nM; the “T cell mediated killing EC50, OSRC2 (EGFR+++c-Met+)” value was determined as 0.00245 nM; the “T cell mediated killing EC50, UT33A (EGFR+++c-Met+++)” value is 0.000398 nM. Further, the “T cell mediated killing EC50, UT44 (EGFR+++c-Met++)” value in test [1] is 0.000154 nM.

B2: CEA-BsAb bispecific control antibody (TA1-Fab CD3 x CEA VHH) (bispecific antibody, human IgG4 S228P, kappa, F234A L235A)
heavy: B1 heavy
chain: EVQLVESGGGFVQAGESLTLSCTSSTLTFTPYRMAWYRQAPGKQRDLVADISSGDGRTTNYADFAKGRFTISRDNIKNTVFLRMTNLKPEDTAVYYCNTFVSFVGIARSWGQGTQVTVSSESKYGPPCPPCPAPEAAGGPSVFLFPPKPKDTLMISRTPEVTCVVVDVSQEDPEVQFNWYVDGVEVHNAKTKPREEQFNSTYRVVSVLTVLHQDWLNGKEYKCKVSNKGLPSSIEKTISKAKGQPREPQVCTLPPSQEEMTKNQVSLSCAVKGFYPSDIAVEWESNGQPENNYKTTPPVLDSDGSFFLVSRLTVDKSRWQEGNVFSCSVMHEALHNRFTQKSLSLSL
light: B1 light
By Kd is commonly meant the free concentration of one partner at which half of the binding sites on the other are occupied at equilibrium, for simple one-to-one binding. As a reminder, the koff is the rate constant with which the complex falls apart. By kon is commonly meant the rate constant with which the complex forms. As for B2, in test [2], the Kd was 0.491 nM, the koff worked out at 0.000236 s⁻¹ and the association rate constant (kon) came to 481000 M⁻¹ s⁻¹.

B3: EGFR-BsAb (CD3 TA1-Fab x EGFR VHH bispecific control antibody) (bispecific antibody, human IgG4 S228P, kappa, F234A L235A)
heavy: B1 heavy
chain: B1 chain
light: B1 light
notes: also called anti-EGFR-BsAb
B3: in test [3], the Kd was 6.43 nM, the koff turned out to be 0.00338 s⁻¹ and the kon worked out at 526000 M⁻¹ s⁻¹. Besides, in test [4], the Kd was 4.43 nM, the koff amounted to 0.00519 s⁻¹ and the kon stood at 1.17e+06 M⁻¹ s⁻¹. In test [5], the dissociation rate constant (koff) was found to be 0.000247 s⁻¹ and the kon came to 222000 M⁻¹ s⁻¹.

B4: unilateral CD3/CEA/HER2 trispecific antibody 611 (other)
chain 1: QVQLVQSGGGLVQAGGSLRLSCAASGRTFSSYAMAWFRQAPGKEREFVAAISWSGANIYVADSVKGRFTISRDNAKDTVYLQMNSLKPEDTAVYYCAVKLGFAPVEERQYDYWGQGTQVTVSSGGGGSGGGGSEVKLLESGGGLVQPKGSLKLSCAASGFTFNTYAMNWVRQAPGKGLEWVARIRSKYNNYATYYADSVKDRFTISRDDSQSILYLQMNNLKTEDTAMYYCVRHGNFGNSYVSWFAYWGQGTLVTVSSASTKGPSVFPLAPCSRSTSESTAALGCLVKDYFPEPVTVSWNSGALTSGVHTFPAVLQSSGLYSLSSVVTVPSSSLGTKTYTCNVDHKPSNTKVDKRVESKYGPPCPPCPAPEAAGGPSVFLFPPKPKDTLMISRTPEVTCVVVDVSQEDPEVQFNWYVDGVEVHNAKTKPREEQFNSTYRVVSVLTVLHQDWLNGKEYKCKVSNKGLPSSIEKTISKAKGQPREPQVYTLPPCQEEMTKNQVSLWCLVKGFYPSDIAVEWESNGQPENNYKTTPPVLDSDGSFFLYSRLTVDKSRWQEGNVFSCSVMHEALHNHYTQKSLSLSL
chain 2: B2 chain
chain 3: B1 light
Consider B4, for which, in test [3], the Kd was found to be 1.77 nM, the koff amounted to 0.000727 s⁻¹ and the on-rate constant (kon) was found to be 410000 M⁻¹ s⁻¹. In test [6], the dissociation constant (Kd) was 0.195 nM, the dissociation rate constant (koff) was 0.000108 s⁻¹ and the kon amounted to 553000 M⁻¹ s⁻¹. Moreover, in test [7], the dissociation constant Kd was determined as 105 nM, the koff was found to be 0.0116 s⁻¹ and the on-rate constant (kon) was 111000 M⁻¹ s⁻¹.

B5: unilateral CD3/CEA/HER2 trispecific antibody 612 (other)
chain 1: B2 chain with C251Y, S256C, S268W, A270L, V309Y, R337H, F338Y
chain 2: B4 chain 1 with Y487C, C492S, W504S, L506A, Y545V, H573R, Y574F
chain 3: B1 light
As for B5, the equilibrium dissociation constant (Kd) in test [3] came out at 1.77 nM; in test [6], 0.193 nM; in test [7], 108 nM. Also, the dissociation rate constant (koff) in test [3] was found to be 0.000682 s⁻¹; in test [6], 0.000105 s⁻¹; in test [7], 0.0122 s⁻¹. For the same molecule, the on-rate (kon) came out at 386000 M⁻¹ s⁻¹ in test [3], 542000 M⁻¹ s⁻¹ in test [6] and 113000 M⁻¹ s⁻¹ in test [7].

B6: HER2-BsAb (CD3 TA1-Fab x HER2 VHH bispecific control antibody) (bispecific antibody, human IgG4 S228P, kappa, F234A L235A)
heavy: B1 heavy
chain: QVQLVQSGGGLVQAGGSLRLSCAASGRTFSSYAMAWFRQAPGKEREFVAAISWSGANIYVADSVKGRFTISRDNAKDTVYLQMNSLKPEDTAVYYCAVKLGFAPVEERQYDYWGQGTQVTVSSESKYGPPCPPCPAPEAAGGPSVFLFPPKPKDTLMISRTPEVTCVVVDVSQEDPEVQFNWYVDGVEVHNAKTKPREEQFNSTYRVVSVLTVLHQDWLNGKEYKCKVSNKGLPSSIEKTISKAKGQPREPQVCTLPPSQEEMTKNQVSLSCAVKGFYPSDIAVEWESNGQPENNYKTTPPVLDSDGSFFLVSRLTVDKSRWQEGNVFSCSVMHEALHNRFTQKSLSLSL
light: B1 light
For the molecule B6, in test [3], the dissociation constant Kd amounted to 1.51 nM, the off-rate constant (koff) worked out at 0.000386 s⁻¹ and the kon came out at 256000 M⁻¹ s⁻¹. Further, in test [6], the koff came out at 0.000391 s⁻¹ and the kon was 877000 M⁻¹ s⁻¹. In test [7], the equilibrium dissociation constant (Kd) stood at 98.4 nM, the off-rate constant (koff) stood at 0.0126 s⁻¹ and the kon was 128000 M⁻¹ s⁻¹.
